Read-outs that look alike come from different tables or passages of the source.

Sequences and labels used below:
B4: soluble human CD154 protein (extracellular domain) (ligand)
chain: GDQNPQIAAHVISEASSKTTSVLQWAEKGYYTMSNNLVTLENGKQLTVKRQGLYYIYAQVTFCSNREASSQAPFIASLCLKSPGRFERILLRAANTHSSAKPCGQQSIHLGGVFELQPGASVFVNVTDPSQVSHGTGFTSFGLLKL
notes: also called sCD154; recombinant extracellular domain of human CD154

In assay [1] the target is B4. The assay can be described thus: Biacore (SPR): antibody or Fab' captured on immobilized anti-human IgG (Fc- or Fab'-specific) F(ab')2, recombinant extracellular domain of human CD154 titrated over it (Example 4); chimaeric Fab'. On the procedure:
(§1) Catalogue Number: BR-1001-88, Biacore AB, Uppsala, Sweden. Buffer stored at 4° C. Immobilization buffer is Acetate 5.0 (being 10 mM sodium acetate pH 5.0). Catalogue number: BR-1003-51, Biacore AB, Uppsala, Sweden. Buffer stored at 4° C. Ligand capture: Affinipure F(ab′)₂ fragment goat anti-human IgG, Fab′ fragment specific (Catalogue number: 109-006-097) or Fc fragment specific (Catalogue number: 109-006-098), Jackson ImmunoResearch Inc (Pennsylvania, USA). Reagents stored at 4° C. […] Analyte: Recombinant extracellular domain of human CD154. Material was prepared at 2 mg/mL (40 μM) in phosphate-buffered saline, stored at 4° C., and diluted in HBE-EP running buffer for the assays. […] Regeneration Solution: 40 mM HCl prepared by dilution with distilled water from an 11.6 M stock solution (BDH, Poole, England. Catalogue number: 101254H). 5 mM NaOH prepared by dilution with distilled water from a 50 mM stock solution. Catalogue number: BR-1003-58, Biacore AB, Uppsala, Sweden. Assay Method: BIA (Biamolecular Interaction Analysis) was performed using a Biacore® 3000 (Biacore AB). Affinipure F(ab′)₂ fragment goat anti-human IgG, Fc- or Fab′-fragment specific (Jackson ImmunoResearch) were immobilized on a CM5 Sensor Chip via amine coupling chemistry to a capture level of ≈6000 response units (RUs). HBS-EP buffer (10 mM HEPES pH 7.4, 0.15 M NaCl, 3 mM EDTA, 0.005% Surfactant P20, Biacore AB) was used as the running buffer with a flow rate of 10 μl/min. Anti-CD154 antibodies or Fab fragments were used at concentrations such that, once captured by the immobilized anti-human IgG-Fc (or anti-human IgG Fab′) surface, gave a signal of ≈200 RUs. Human CD154 was titrated over the captured antibody, at various concentrations. 90 μL of CD154 was injected over the surface (association phase), followed by a 240 second dissociation phase, all at a flow rate of 30 μl/min. […] Background subtraction binding curves were analyzed using the BIAevaluation software (version 3.2) following standard procedures. Kinetic parameters were determined from the fitting algorithm.
For orientation: In SPR one partner is held on a chip, and binding of the other changes the refractive index at the surface.

Assay [2] addresses T1, CD154 expressed on D1.1 Jurkat cells (UniProt P29965 1-261, limits assumed).
T1 sequence (looked up): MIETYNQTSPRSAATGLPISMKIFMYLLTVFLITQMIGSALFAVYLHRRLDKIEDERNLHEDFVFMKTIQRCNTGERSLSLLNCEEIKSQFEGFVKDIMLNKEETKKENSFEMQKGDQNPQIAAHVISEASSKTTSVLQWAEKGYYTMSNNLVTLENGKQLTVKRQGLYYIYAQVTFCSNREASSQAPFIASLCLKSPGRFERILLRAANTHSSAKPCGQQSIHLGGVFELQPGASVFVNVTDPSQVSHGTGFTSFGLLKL
The assay can be described thus: cell-based or functional assay.

Assay [3] concerns the target T1, CD154 expressed on D1.1 Jurkat cells. The assay can be described thus: flow cytometry: inhibition of the binding of hCD40-mFc-PE to CD154-expressing D1.1 Jurkat cells by serially diluted chimaeric Fab' (Example 5). On the procedure:
(§2) A flow cytometry-based assay was used to assess the binding of labeled CD40 to CD154-expressing D1.1 cells. D1.1 Jurkat cells (American Type Culture Collection) were maintained in RPMI 1640 medium (Gibco, 31870-025)) containing 10% (v/v) fetal calf serum (FCS), 2 mM glutamine (Invitrogen, 23030024), 1 mM sodium pyruvate (Invitrogen, 11360-039), 1% (v/v) D-(+)-glucose (Sigma, G8769) & 10 mM HEPES (Sigma, H0887). At time of assay, 100,000 D1.1 cells were incubated in 100 μL RPMI 1640 medium+10% FCS, in the presence or absence of serially diluted anti-CD154 antibody for 15 minutes at room temperature. 5 μL of a 1:75 dilution of hCD40-mFc-PE (Alexis Corp, ANC-504-050) was then added and incubated for a further 30 minutes at room temperature. After washing twice in phosphate-buffered saline (PBS) containing 1% (w/v) bovine serum albumin (BSA fraction V, Serologicals Proteins Inc, 81-068-5) and 0.02% (w/v) sodium azide (BDH, 103692K), cells were resuspended in 200 μL PBS/1% BSA/0.02% sodium azide and flow cytometry performed on a Becton Dickinson FACScan. The values for geometric mean fluorescence (FL2) were assessed in all cases.
In general terms: A flow cytometer gives signals particle by particle.

The target in assay [4] is B4. Put plainly: Biacore (SPR): antibody or fragment captured on immobilized anti-human IgG (Fc- or Fab'-specific) F(ab')2, recombinant extracellular domain of human CD154 titrated over it (Example 4). On the procedure:
as §1

The target of assay [5] is T2, Myc-tagged CD154 (UniProt P29965 116-261, limits assumed).
T2 construct: Captured on the ELISA plate by anti-Myc antibody 9E10; The order of tag and CD154 is not known; also called CD40L; not shown: Myc tag
T2 sequence (looked up): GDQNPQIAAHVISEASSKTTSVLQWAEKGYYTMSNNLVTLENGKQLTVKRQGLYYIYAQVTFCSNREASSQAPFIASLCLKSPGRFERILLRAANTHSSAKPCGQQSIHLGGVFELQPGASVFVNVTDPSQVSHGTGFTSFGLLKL
The assay can be described thus: ELISA: Myc-tagged CD154 captured on anti-Myc antibody 9E10, biotin 342 Fab' titrated, streptavidin-HRP detection (Example 14). On the procedure:
In this assay, anti-Myc antibody 9E10 was coated onto an ELISA plate. Myc-tagged CD154 was captured by this antibody. […] The plate was washed and the amount of biotinylated 5c8 Fab bound was determined using streptavidin HRP as a secondary. The signal was graphed and fit using a either a one site binding hyperbola or a two site binding hyperbola curve fit in Prism software (Graph Pad).
A titration of biotin 5c8 Fab′ on CD154 to determine the appropriate concentration for cross-blocking analysis was also performed (FIG. 29B).
(An ELISA detects its analyte on a solid surface through an enzyme-linked reagent.)

The target of assay [6] is T3, CD40:sCD154 complex (human, UniProt P25942 21-193, limits assumed).
T3 construct: also called CD40:CD154 complex; not shown: human Fc (hFc)
T3 sequence (P25942 21-193 limits assumed, one chain of several): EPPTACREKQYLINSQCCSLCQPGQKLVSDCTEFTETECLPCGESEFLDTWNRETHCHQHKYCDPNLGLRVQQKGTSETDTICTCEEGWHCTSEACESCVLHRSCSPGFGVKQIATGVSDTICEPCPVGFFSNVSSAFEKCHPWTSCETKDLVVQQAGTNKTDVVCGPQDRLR
The assay can be described thus: Biacore (SPR): CD40hFc captured, ECD bound, then buffer or Fab injected; concentration not given (Example 10).

The target in assay [7] is T1, CD154 expressed on D1.1 Jurkat cells. The assay can be described thus: flow cytometry: inhibition of the binding of hCD40-mFc-PE to CD154-expressing D1.1 Jurkat cells by serially diluted antibody (Example 5). On the procedure:
as §2

For assay [8] the target is unchanged. Put plainly: flow cytometry competition binding assay: serially diluted antibody against biotinylated 342 Fab on CD154-expressing D1.1 Jurkat cells, streptavidin-R-phycoerythrin detection (Example 6). On the procedure:
A flow cytometry-based assay was used to assess the binding of anti-CD154 antibody to CD154-expressing D1.1 cells. D1.1 Jurkat cells (American Type Culture Collection) were maintained in RPMI 1640 medium (Gibco, 31870-025) containing 10% (v/v) fetal calf serum (FCS), 2 mM glutamine (BioWhittaker, 17-605E) and […] (Mediatech, 30002107). […] The cells were washed three times in FACS buffer with centrifugation at 290×g for 3 minutes in between washes. A 1:500 dilution of streptavadin-R-phycoerythrin conjugate (Jackson Immunoresearch, 016-110-084) in […] FACS buffer was added and the cells were incubated for one hour at 4° C. The cells were washed once and fixed in PBS with 3% formaldehyde at room temperature for 10 minutes. The cells were resuspended in FACS buffer and run on a FacsCalibur (BD). The values for geometric mean fluorescence (FL2) were assessed in all cases.

Assay [9] shares this target. Put plainly: cell-based or functional assay. The source holds these as a separate data set.
Assay [10] concerns the target B4. Put plainly: Biacore; purified Fab captured on the chip, human CD154 extracellular domain as analyte.
Assay [11] deals with T4, CD40hFc (human CD40 fusion protein) (human, UniProt P25942 21-193, limits assumed).
T4 construct: not shown: human Fc (hFc)
T4 sequence (P25942 21-193 limits assumed): as the sequence (P25942 21-193 limits assumed, one chain of several) above
Put plainly: Biacore (SPR), sequential injections: CD40hFc captured, then soluble CD154 (ECD); concentrations not given (Example 10).

B1: anti-CD154 antibody 381 Fab′ (Fab, V domains shown)
VH: EVPLVESGGGLVQPGRSMKLSCVASGFTFSDYYMAWVRQAPKKGLEWVASISYEGSSTYYGDSVKGRFTVSRDIAKSTLYLQMHSLKSEDTAIYYCARHDDSPGYYFDYWGQGVMVTVS
VL: DIQMTQSPTSLSASLGETVSIECLAGEDISNVLAWYQQKSGGSPQLLIYAANRLQDGVPSRFSGSGSGTRYSLKISGMRPEDEADYFCQQTFRYPLTFGSGTKLELK
Broadly, the Kd is the free concentration of one partner at which half of the binding sites on the other are occupied at equilibrium, for simple one-to-one binding. The term IC50 denotes the concentration that inhibits the measured activity by half. With B1, the Kd in [1] is 0.005 nM. Further, in assay [2], the “IC50 of inhibition of ICAM-1 (CD54) upregulation on CD40-expressing Ramos B cells co-cultured with CD154-expressing D1.1 Jurkat cells” value is 0.1 µg/mL. Moreover, the IC50 in assay [3] was found to be 0.022 µg/mL.

B2: 342 Fab′ (Fab, V domains shown)
VH: EVQLVESGGGLVQPGGSLRLSCAVSGFSSTNYHVHWVRQAPGKGLEWMGVIWGDGDTSYNSVLKSRFTISRDTSKNTVYLQMNSLRAEDTAVYYCARQLTHYYVLAAWGQGTLVTVSS
VL: DIQMTQSPSSLSASVGDRVTITCRASEDLYYNLAWYQRKPGKAPKLLIYDTYRLADGVPSRFSGSGSGTDYTLTISSLQPEDFASYYCQQYYKFPFTFGQGTKVEIKR
The EC50 (read off the curve) is the concentration giving half of the maximal effect. Higher therefore signals lower potency in that assay. Regarding B2, in assay [4], the Kd is 0.028 nM. Moreover, in [5], the “EC50 (read off the curve)” value is about 0.1 nM. Further, the binding result in assay [6] is “no binding”. Moreover, the IC50 in [7] was found to be 0.012 µg/mL; in [8], 0.024 nM. Also, the “IC50 of inhibition of ICAM-1 (CD54) upregulation on CD40-expressing Ramos B cells co-cultured with CD154-expressing D1.1 Jurkat cells” value in [9] stood at 0.04 µg/mL.

B3: humanized 342 Fab, graft gL4gH1 (Fab, V domains shown)
VH: EVQLVESGGGLVQPGGSLRLSCAVSGFSSTNYHVHWVRQAPGKGLEWMGVIWGDGDTSYNSVLKSRFTISRDTSKNTVYLQMNSLRAEDTAVYYCARQLTHYYVLAAWGQGTLVTVSS
VL: DIQMTQSPSSLSASVGDRVTITCRASEDLYYNLAWYQRKPGKAPKLLIYDTYRLADGVPSRFSGSGSGTDYTLTISSLQPEDFASYYCQQYYKFPFTFGQGTKVEIKR
One may read the koff as the rate constant with which the complex falls apart. A low value points to slow dissociation. By kon is commonly meant the rate constant with which the complex forms. In assay [10], B3 had a Kd of 0.00455 nM, a koff of 6.97e-05 s⁻¹ and a kon of 1.53e+07 M⁻¹ s⁻¹.
In the case of B4, the binding result in [11] is recorded as “binds”.

B5: anti-CD154 antibody 338 (Fab, V domains shown)
VH: QVQLTESGPGLVQPSQTLSLTCTVSGFSLTSHHISWVRQPPGKGLEWVGVMWNDGGTLYNSALKSRPSISRDTSKSQVFLKMSSLQTEDTATYYCARGKMHYYVLDAWGQGASVTVS
VL: DIQMTQSPASLSASLGETVTIECRTSEDIYSNLAWYRQRPGKSPQLLIYDTNRLADGVPSRFSGSGSGTQYSLKINSLQSEDVASYFCQHYSNFPWTFGGDTKLELK
Consider B5, for which the Kd in assay [1] came to 0.015 nM. The “IC50 of inhibition of ICAM-1 (CD54) upregulation on CD40-expressing Ramos B cells co-cultured with CD154-expressing D1.1 Jurkat cells” value in assay [2] was found to be 0.192 µg/mL. The molecule further came in with an IC50 in assay [3] of 0.006 µg/mL.

B6: chimeric 342 Fab′ (unlabeled 342 Fab′ of FIG. 29C) (Fab, V domains shown)
VH: QVQLKESGPGLVQPSETLSLTCTVSGFSSTNYHVHWVRQPPGKSLEWMGVIWGDGDTSYNSVLKSRLSITRDTSRSQVFLKMSSLQTEDTATYYCARQLTHYYVLAAWGQGASVTVS
VL: DIQMTQSPASLSASLGETVTVECRASEDLYYNLAWYQRKPGNSPQLLIYDTYRLADGVPSRFSGSGSGTQYSLKINTLPSGDVASYFCQQYYKFPFTFGSGTKLELK
notes: also called ch342 Fab
Turning to B6, in assay [1], the Kd stood at 0.016 nM. In addition, in [2], the “IC50 of inhibition of ICAM-1 (CD54) upregulation on CD40-expressing Ramos B cells co-cultured with CD154-expressing D1.1 Jurkat cells” value is 0.053 µg/mL. Besides, in [3], the IC50 is 0.008 µg/mL.

The values above are taken from patent US20130045219A1 (UCB, published 2013).
